Test results as given in patent US8623997B2, “Variant Hhip1 protein and methods and uses thereof” (Curis, Inc., priority 2008, dated 2014).
Bridge positions count the residues as written; N and C are the ends. Ends that are not written are not given here.

Experiments:
Shh = target: T1, Shh (Homo sapiens, UniProt Q15465); test: NMR HSQC spectroscopy of labeled Shh with L2 loop peptides; format: binding; conditions: peptide 2 mM, 90 μM ^15N-Shh
T1 construct: yielding Shh (residues 29-197) lacking the His6-Tag; His6 (N, cleaved yes); made in house; host or cells: E. coli Rosetta 2, minimal/M9 medium with 15NH4Cl
T1 sequence (Q15465 29-197): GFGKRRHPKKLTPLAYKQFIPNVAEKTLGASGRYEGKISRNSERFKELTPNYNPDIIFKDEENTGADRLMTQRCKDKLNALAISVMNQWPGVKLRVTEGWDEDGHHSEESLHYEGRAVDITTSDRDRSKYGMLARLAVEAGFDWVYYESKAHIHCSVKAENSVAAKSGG
Text: Shh is in the same orientation as in the Hhip-Shh complex in Panel A. Zn^2+ and Ca^2+ cations are shown. […] Surface representation of Shh with residues within 4.5 Å of Hhip (shaded gray) and Cdon (hatched areas). Area within dotted boarder indicates the boundaries of the Cdon footprint, which overlaps the Hhip binding surface. […] Shh histidine residues are shown as sticks with nitrogen atoms shaded dark. The Hhip L2 loop is shown in transparent surface and Zn^2+ cation is shown. Histidine 35 is not shown since the ordered portion of the Shh structure begins at L40. […] The spectral region of the histidine side chains is shown. […] The average mean Shh649 fluorescence intensity (MFI) of two independent dilution series was plotted versus protein concentration, with error bars denoting standard deviations. Ctrl refers to the His-6 (SEQ ID NO: 87) tagged HGF β protein. […] Shh649 (0.33 nM) was preincubated with 56 nM (170-fold excess) of Hhipβ12 wildtype or L2 mutant proteins, 5E1 or controls then bound to Ptch1 cells (black) or 293 cells (gray), washed and analyzed by FACS. Shh649 binding to Ptch1 cells in the absence of inhibitors was normalized to 100% and the data expressed as a percentage of this signal (average of two independent duplicates with standard deviations). Ctrl and CtrlFc refer to HGF β and the IgG1 isotype control Trastuzumab, respectively. […]

Shh-Flag = target: T2, Shh-Flag (Homo sapiens, UniProt Q15465); test: Peptide competition ELISA for Hhip binding to Shh-Flag
T2 construct: Shh-Flag (residues 25-197 with C-terminal Flag-Tag); His6 (N); made in house; host or cells: Shh-Flag: E. coli Rosetta 2; Hhip: Tni insect cells
T2 sequence (Q15465 25-197): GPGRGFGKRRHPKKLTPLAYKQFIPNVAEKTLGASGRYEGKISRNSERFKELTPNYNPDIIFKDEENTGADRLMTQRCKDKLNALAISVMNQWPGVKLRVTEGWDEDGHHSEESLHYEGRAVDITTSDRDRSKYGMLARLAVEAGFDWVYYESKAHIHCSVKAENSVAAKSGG
Protocol: In a competition assay, a peptide derived from the Hhip1β12 L2 loop competed with Hipβ1 for Shh binding. Briefly, 96-well Nunc-Immuno MaxiSorp plates (Nalge Nunc International) were coated with 100 μl of anti-Flag M2 antibody (Sigma) at 5 μg/ml in 50 mM sodium carbonate buffer pH 9.6 at 4° C. overnight. Plates were blocked and washed as described for Shh competition ELISA followed by incubation with 100 μL of Shh-Flag at 50 μg/ml for 1 h. After plate washing a serial dilution of Hip-L2 peptide ([…]) (SEQ ID NO:46) starting at 1.2 mM (1:3 dilution) containing 800 nM Hhip1β12 in a final volume of 100 μL was added to the wells to compete for binding to Shh-Flag. After incubation for 1 hr, wells were washed and incubated with anti-His-HRP conjugate (Qiagen, 1:2000 dilution) in blocking buffer. Plate was developed and the data were fit to a 4-parameter equation and the IC50 calculated as described above; assays were carried out in triplicate.

GCQLTKQRLVDADGIINPCG (disulfide 2-19 (inferred); listed as Homo sapiens) [Ptch L2 peptide]
binding to Shh by ^15N, ^1H HSQC (in words) (Shh): binds Shh in a manner similar to that of the Hhip1β12 L2 peptide
competition with Hipβ1 for Shh binding (in words) (Shh-Flag): unable to compete with Hipβ1 for Shh binding
